Patent publication US20130156764A1, “NEUTRALIZATION OF FLT3 LIGAND AS A LEUKEMIA THERAPY” (The Johns Hopkins University, priority 2010, published 2013)

Columns and labels:
[1] = system: BaF3/ITD and BaF3/TKD cells; experiment: Survival (MTT, trypan blue) of BaF3/ITD and BaF3/TKD cells with FL; assay type: cell-based; settings: serum-free, 4 days
Method: (§1) 2×10^4 cells in 100 μl serum-free medium were plated into triplicate wells of 96-well plates. Survival was assessed by MTT assay (Roche, Indianapolis, Ind.) and viable cell number counting by trypan blue (GIBCO, Rockville, Md.) exclusion according to the manufacturer's instructions.
BaF3 is another cell line lacking expression of endogenous FLT3. BaF3 cells transfected with mutant forms of FLT3 were starved in serum-free medium for 16 hours and washed with PBS before FL stimulation. […] Changes of other FLT3 downstream signals were not observed. An MTT survival assay was performed in BaF3/ITD and BaF3/TKD cells cultured in serum-free medium in the presence and absence of FL for 4 days. […] The effect was also confirmed by counting viable cell numbers by trypan blue exclusion (FIG. 13C, P<0.05). These findings indicate that FL stimulation prolongs the survival of cells expressing FLT3 mutants.

[2] = system: STAT5 and AKT phosphorylation; experiment: FL stimulation, downstream signaling in MV411 cells; assay type: cell-based, human
[3] = system: FL−/− primary hematopoietic progenitor cells expressing FLT3/ITD or FLT3/TKD; experiment: Colony-replating assay of FL−/− bone marrow progenitors transduced with FLT3 mutants, with FL; assay type: cell-based, mice
Excerpt: Bone marrow was harvested from FL^−/− mice, lineage depleted (Lineage Cell Depletion kit; Militenyibi Biotec, Auburn Calif.), and transduced with EF1-ITD-UBC-GFP, EF1-TKD-UBC-GFP, or EF1-UBC-GFP lentivirus by 3 rounds of spin-infection on days 1, 2 and 3. The EF1-ITD-UBC-GFP vector was constructed by inserting full-length FLT3/ITD in EF1-UBC-GFP lentiviral vector. The EF1-TKD-UBC-GFP was constructed by inserting wtFLT3 into the EF1-UBC-GFP followed by mutagenesis of wtFLT3 to substitute nucleotide G of D835 with T resulting in an Aspartic acid to Tyrosine change (QuickChange Site-Directed Mutagenesis Kit; Stratagene, La Jolla, Calif.). GFP positive cells were then sorted by FACS. 10^3 cells were plated into triplicate 35 mm Petri dishes (Nunc) in 1 ml of Methocult M3434 (StemCell Technologies Inc., Vancouver) containing 50 ng/mL rm SCF, 10 ng/mL rm IL-3, 10 ng/mL rh IL-6, and 3 units/mL rh Erythropoietin. Cultures were incubated at 37° C. in a humidified atmosphere of 5% CO2, and colonies consisting of >35 cells were scored after 9-11 days. For the colony-replating assay all cells from the previous culture were collected and re-plated at 1×10^4 cells/plate in fresh methylcellulose medium. All cells were replated three times.
To evaluate the effect of FL stimulation on primary hematopoietic progenitor cells expressing FLT3 mutants, lineage negative progenitors were harvested from FL^−/− mice and transduced with FLT3/ITD-GFP, FLT3/TKD-GFP, or GFP control lentivirus. GFP-positive cells were selected by FACS, cultured in methylcellulose with and without FL, and the colony numbers were counted after 9 days.
After colonies were counted, all of the cells in each culture dish were harvested from the methylcellulose, washed and re-plated in fresh methylcellulose medium to examine their potential to form colonies upon secondary plating; this process was repeated for two more passages to determine the frequency of tertiary and quaternary colonies. […]

MV411 cells = experiment: Survival (MTT) of MV411 cells with FL; assay type: cell-based, human; settings: MV411, serum-free, 4 days
Method: as §1
The MV411 cell line is a human leukemia-derived cell line expressing a FLT3/ITD mutation and has lost the wild-type allele. […] MV411 cells express endogenous FL that might diminish the degree of the effect of exogenous FL on FLT3/ITD mutant receptor. To evaluate the effect of FL on the survival of MV411 cells, MV411 cells were cultured in serum-free medium in the presence and absence of FL for 4 days.

[4] = system: primary AML blasts expressing homozygous FLT3/ITD mutations; experiment: Survival (MTT) of primary AML blasts with FL; assay type: cell-based, human; settings: complete medium, 4 days
Method: as §1
(§2) To study whether further activation of mutant FLT3 receptors in response to FL also occurs in primary cells, experiments were carried on primary AML blasts expressing homozygous FLT3/ITD mutations (i.e., no detectable wild type FLT3 by PCR). The blasts were stimulated with 100 ng/mL FL. […] The survival of AML blasts was assessed by culturing them in complete medium with and without FL for 4 days.

[5] = system: FLT3/ITD in primary AML blasts; experiment: FL stimulation, FLT3 phosphorylation in primary AML blasts with homozygous FLT3/ITD; assay type: cell-based, human; settings: 100 ng/mL FL
Method: as §2

B1: FL: Recombinant human FL (fms-related tyrosine kinase ligand) purchased from PeproTech; SEQ ID NO: 1 (protein, listed as Homo sapiens)
chain: MTVLAPAWSPTTYLLLLLLLSSGLSGTQDCSFQHSPISSDFAVKIRELSDYLLQDYPVTVASNLQDEELCGGLWRLVLAQRWMERLKTVAGSKMQGLLERVNTEIHFVTKCAFQPPPSCLRFVQTNISRLLQETSEQLVALKPWITRQNFSRCLELQCQPDSSTLPPPWSPRPLEATAPTAPQPPLLLLLLLPVGLLLLAAAWCLHWQRTRRRTPRPGEQVPPVPSPQDLLLVEH
[1]
  survival (MTT, confirmed by trypan blue): increased survival
[2]
  phosphorylation of FLT3 downstream signaling, including STAT5 and AKT: Slightly enhanced phosphorylation
[3]; BM cells transduced with FLT3 mutants, 9 days
  number of first-generation colonies: slightly increased
[3]; BM cells transduced with FLT3 mutants, cultured in presence of FL
  re-plating activity upon serial passages: retained their re-plating activity
[3]; FL−/− BM cells expressing FLT3 mutants stimulated with FL
  colony size: significant increase in colony size
MV411 cells
  survival: prolonged survival
[4]
  patient samples with increased survival of AML blasts: three of four
[5]
  FLT3 phosphorylation: enhanced FLT3 phosphorylation
